Drawing on publication PMC4984425, this text covers Kd for two molecules.

Experiment [1] addresses FITC-labeled PDIA6 (mouse) (UniProt Q922R8). Put plainly: MST.
The target of experiment [2] is His-tagged IRE1α ER luminal domain (IRE1-NLD). In words: SPR.

In the case of “His-tagged IRE1α ER luminal domain (IRE1-NLD) (domain or fragment)”, in experiment [1], the Kd came out at 20 nM. This lies in the double-digit nanomolar range.

B1: PDIA6 isolated from mouse liver microsomal fraction (natural protein)
chain: LYSSSDDVIELTPSNFNREVIQSDGLWLVEFYAPWCGHCQRLTPEWKKAATALKDVVKVGAVNADKHQSLGGQYGVQGFPTIKIFGANKNKPEDYQGGRTGEAIVDAALSALRQLVKDRLGGRSGGYSSGKQGRGDSSSKKDVVELTDDTFDKNVLDSEDVWMVEFYAPWCGHCKNLEPEWAAAATEVKEQTKGKVKLAAVDATVNQVLASRYGIKGFPTIKIFQKGESPVDYDGGRTRSDIVSRALDLFSDNAPPPELLEIINEDIAKKTCEEHQLCVVAVLPHILDTGAAGRNSYLEVLLKLADKYKKKMWGWLWTEAGAQYELENALGIGGFGYPAMAAINARKMKFALLKGSFSEQGINEFLRELSFGRGSTAPVGGGSFPTITPREPWDGKDGELPVEDDIDLSDVELDDLEKDEL
Molecule B1 had a Kd in experiment [2] of 22 nM.
